These results are taken from paper PMC3531251, “Yeast importin-β is required for nuclear import of the Mig2 repressor” (BMC Cell Biology, 2012).

The test concerns the target T1, Kap60 (importin-α), purified from E. coli (S. cerevisiae, UniProt Q02821 1-542).
T1 construct: also called purified Kap60; GST-Kap60 (before thrombin); source: E. coli BL21(DE3) pLysS, purified on glutathione-Sepharose, released with thrombin
T1 sequence (looked up): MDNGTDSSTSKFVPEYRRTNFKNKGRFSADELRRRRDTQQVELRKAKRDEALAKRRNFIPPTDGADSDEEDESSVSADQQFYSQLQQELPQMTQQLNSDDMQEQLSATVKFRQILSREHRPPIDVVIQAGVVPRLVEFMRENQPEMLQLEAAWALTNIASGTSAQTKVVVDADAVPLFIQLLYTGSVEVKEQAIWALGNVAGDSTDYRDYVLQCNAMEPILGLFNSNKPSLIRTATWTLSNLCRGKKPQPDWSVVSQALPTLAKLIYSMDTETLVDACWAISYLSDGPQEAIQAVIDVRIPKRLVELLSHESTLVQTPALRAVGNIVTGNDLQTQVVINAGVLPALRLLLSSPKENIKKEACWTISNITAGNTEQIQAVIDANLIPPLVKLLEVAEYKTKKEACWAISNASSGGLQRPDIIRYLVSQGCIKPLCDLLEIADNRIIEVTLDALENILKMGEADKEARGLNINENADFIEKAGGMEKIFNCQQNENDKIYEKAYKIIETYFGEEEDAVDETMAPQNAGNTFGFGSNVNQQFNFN
The test is described as follows: pull-down; GST fusion on glutathione-Sepharose incubated with purified Kap60 and/or Kap95 (thrombin-released), no Gsp1; 1 h at 4°C in PBS; blot with anti-Kap60 or anti-Kap95. Conditions: both partners purified.

B1: GST-Mig2nls1 fusion protein (natural protein)
chain: not shown
notes: Held on glutathione-Sepharose beads in the pull-downs; also called Mig2nls1-GST; MIG2K32AK33AR37A; source: E. coli BL21(DE3) pLysS, purified on glutathione-Sepharose
As to B1, the binding result is given as “binds”.

B2: GST-Mig2 fusion protein (natural protein)
chain: not shown
notes: Mig2 of Saccharomyces cerevisiae, PCR fragment cloned in the SalI site of pGEX-4T-1; also called Mig2-GST; pGEX/MIG2; source: E. coli BL21(DE3) pLysS, purified on glutathione-Sepharose
For the molecule B2, the binding result is listed as “binds”.
